Measurements from the supplement of paper PMC11246515.
± gives the standard deviation of the averaged measurements.

Experiment: total protein half-life in vivo (active degradation + dilution); higher = more stable protein
[1] = E. coli NCM3722 delta-clpP, growth: N-lim chemostat, doubling time 6 h
[2] = wild type E. coli NCM3722, growth: P-lim chemostat, doubling time 12 h
[3] = E. coli NCM3722 delta-clpP delta-lon delta-hslV, growth: N-lim chemostat, doubling time 6 h
[4] = E. coli NCM3722 delta-hslV, growth: N-lim chemostat, doubling time 6 h
[5] = E. coli NCM3722 delta-lon, growth: N-lim chemostat, doubling time 6 h
[6] = E. coli NCM3722 delta-smpB, growth: N-lim chemostat, doubling time 6 h
[7] = wild type E. coli NCM3722, growth: C-lim chemostat, doubling time 3 h
[8] = wild type E. coli NCM3722, growth: C-lim chemostat, doubling time 6 h
[9] = wild type E. coli NCM3722, growth: C-lim chemostat, doubling time 12 h
[10] = wild type E. coli NCM3722, growth: N-lim chemostat, doubling time 6 h
[11] = wild type E. coli NCM3722, growth: N-lim chemostat, doubling time 12 h
[12] = wild type E. coli NCM3722, growth: P-lim chemostat, doubling time 6 h

| Sequence | total protein half-life in vivo [1] [h] | total protein half-life in vivo [2] [h] | total protein half-life in vivo [3] [h] | total protein half-life in vivo [4] [h] | total protein half-life in vivo [5] [h] | total protein half-life in vivo [6] [h] | total protein half-life in vivo [7] [h] | total protein half-life in vivo [8] [h] | total protein half-life in vivo [9] [h] | total protein half-life in vivo [10] [h] | total protein half-life in vivo [11] [h] | total protein half-life in vivo [12] [h] |
| --- | --- | --- | --- | --- | --- | --- | --- | --- | --- | --- | --- | --- |
| MTVNSSRNALKRRTWALFMFFFLPGLLMASWATRTPAIRDILSVSIAEMGGVLFGLSIGSMSGILCSAWLVKRFGTRNVILVTMSCALIGMMILSLALWLTSPLLFAVGLGVFGASFGSAEVAINVEGAAVEREMNKTVLPMMHGFYSLGTLAGAGVGMALTAFGVPATVHILLAALVGIAPIYIAIQAIPDGTGKNAADGTQHGEKGVPFYRDIQLLLIGVVVLAMAFAEGSANDWLPLLMVDGHGFSPTSGSLIYAGFTLGMTVGRFTGGWFIDRYSRVAVVRASALMGALGIGLIIFVDSAWVAGVSVVLWGLGASLGFPLTISAASDTGPDAPTRVSVVATTGYLAFLVGPPLLGYLGEHYGLRSAMLVVLALVILAAIVAKAVAKPDTKTQTAMENS | 4.21 | 7.65 |  |  |  |  |  |  |  |  |  |  |
| MTVPTYDKFIEPVLRYLATKPEGAAARDVHEAAADALGLDDSQRAKVITSGQLVYKNRAGWAHDRLKRAGLSQSLSRGKWCLTPAGFDWVASHPQPMTEQETNHLAFAFVNVKLKSRPDAVDLDPKADSPDHEELAKSSPDDRLDQALKELRDAVADEVLENLLQVSPSRFEVIVLDVLHRLGYGGHRDDLQRVGGTGDGGIDGVISLDKLGLEKVYVQAKRWQNTVGRPELQAFYGALAGQKAKRGVFITTSGFTSQARDFAQSVEGMVLVDGERLVHLMIENEVGVSSRLLKVPKLDMDYFE | 4.02 ± 0.13 | 10.4 ± 0.31 | 5.65 ± 1.1 | 3.84 ± 0.13 | 4.33 ± 0.27 | 3.561 ± 0.012 | 2.94 ± 0.055 | 4.88 ± 0.19 | 10.48 ± 0.072 | 3.599 ± 0.011 | 7.77 ± 3.8 | 4.92 ± 0.1 |
| MTVQTSKNPQVDIAEDNAFFPSEYSLSQYTSPVSDLDGVDYPKPYRGKHKILVIAADERYLPTDNGKLFSTGNHPIETLLPLYHLHAAGFEFEVATISGLMTKFEYWAMPHKDEKVMPFFEQHKSLFRNPKKLADVVASLNADSEYAAIFVPGGHGALIGLPESQDVAAALQWAIKNDRFVISLCHGPAAFLALRHGDNPLNGYSICAFPDAADKQTPEIGYMPGHLTWYFGEELKKMGMNIINDDITGRVHKDRKLLTGDSPFAANALGKLAAQEMLAAYAG | 5.29 ± 1.6 | 10.5 ± 1.5 | 5.25 ± 1.1 | 4.05 ± 0.35 | 4.62 ± 0.19 | 4.27 ± 0.24 | 2.88 ± 0.26 | 5.19 ± 0.35 | 10.6 ± 0.23 | 3.97 ± 0.85 | 7.51 ± 0.27 | 5.31 ± 0.43 |
| MTVRILAVCGNGQGSSMIMKMKVDQFLTQSNIDHTVNSCAVGEYKSELSGADIIIASTHIAGEITVTGNKYVVGVRNMLSPADFGPKLLEVIKEHFPQDVK | 5.3 | 9.81 | > 8 | 6.08 ± 2.4 |  | 3.21 | 2.24 | 3.71 | 4.74 ± 0.78 |  |  | 5.12 ± 1.8 |
| MTVTTFSELELDESLLEALQDKGFTRPTAIQAAAIPPALDGRDVLGSAPTGTGKTAAYLLPALQHLLDFPRKKSGPPRILILTPTRELAMQVSDHARELAKHTHLDIATITGGVAYMNHAEVFSENQDIVVATTGRLLQYIKEENFDCRAVETLILDEADRMLDMGFAQDIEHIAGETRWRKQTLLFSATLEGDAIQDFAERLLEDPVEVSANPSTRERKKIHQWYYRADDLEHKTALLVHLLKQPEATRSIVFVRKRERVHELANWLREAGINNCYLEGEMVQGKRNEAIKRLTEGRVNVLVATDVAARGIDIPDVSHVFNFDMPRSGDTYLHRIGRTARAGRKGTAISLVEAHDHLLLGKVGRYIEEPIKARVIDELRPKTRAPSEKQTGKPSKKVLAKRAEKKKAKEKEKPRVKKRHRDTKNIGKRRKPSGTGVPPQTTEE | 5.51 ± 0.25 | 7.44 ± 0.14 | 5.75 ± 0.085 | 4.72 ± 0.45 | 5.13 ± 0.37 | 4.237 ± 0.022 | 3.01 ± 0.26 | 5.47 ± 0.41 | 9.33 ± 0.45 | 4.2 ± 0.049 | 7.37 ± 0.27 | 4.18 ± 0.28 |
| MTWEYALIGLVVGIIIGAVAMRFGNRKLRQQQALQYELEKNKAELDEYREELVSHFARSAELLDTMAHDYRQLYQHMAKSSSSLLPELSAEANPFRNRLAESEASNDQAPVQMPRDYSEGASGLLRTGAKRD [P0ADW3] | 5.58 ± 0.45 | 12.5 ± 1.1 | 6.13 ± 0.15 | 5.63 ± 0.57 | 5.76 ± 0.067 | 5.84 ± 0.37 | 3.33 ± 0.31 | 6.4 ± 0.23 | 12.4 ± 2.7 | 5.78 ± 0.092 | 11.7 ± 0.66 | 5.43 ± 0.44 |
